Like-named read-outs stand apart in the source and are kept apart here.
Key:
Test in all cases: ELISA, OD405 at 10 ug/ml
D.9009SA V1/V2 tags [1] = target: D.9009SA V1/V2 tags
AE.con gp140CF = target: AE.con gp140CF
B.con gp140CF [2] = target: B.con gp140CF
C.1086 gp140 = target: T1, C.1086 gp140
T1 construct: also called C.1086gp140C

Con 6 gp120 = target: Con 6 gp120
SIV CPZ US-1 gp140CF = target: T2, SIV CPZ US-1 gp140CF (SIVcpz)
T2 construct: also called US-1 SIVCPZ gp140CF
T2 chain: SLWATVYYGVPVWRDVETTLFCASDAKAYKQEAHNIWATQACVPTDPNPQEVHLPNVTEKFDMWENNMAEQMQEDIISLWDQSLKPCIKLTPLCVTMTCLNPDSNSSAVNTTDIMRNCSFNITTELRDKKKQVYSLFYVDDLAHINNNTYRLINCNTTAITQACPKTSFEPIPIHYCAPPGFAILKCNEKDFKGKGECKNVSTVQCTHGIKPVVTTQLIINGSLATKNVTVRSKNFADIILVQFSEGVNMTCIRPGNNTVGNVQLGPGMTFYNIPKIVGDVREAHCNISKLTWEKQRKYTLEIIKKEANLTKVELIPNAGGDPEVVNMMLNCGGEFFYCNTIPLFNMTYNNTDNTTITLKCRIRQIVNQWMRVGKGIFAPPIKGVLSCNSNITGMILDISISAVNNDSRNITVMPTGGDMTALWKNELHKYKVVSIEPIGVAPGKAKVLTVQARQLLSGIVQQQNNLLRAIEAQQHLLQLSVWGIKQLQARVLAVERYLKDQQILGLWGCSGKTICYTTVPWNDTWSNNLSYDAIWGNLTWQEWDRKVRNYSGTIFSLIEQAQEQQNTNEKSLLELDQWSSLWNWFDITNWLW

B.9021 gp140C = B.9021 gp140C (HIV-1)
gp70 B.CaseA2 V1/V2 = target: T3, gp70 B.CaseA2 V1/V2 (HIV-1 V1V2 on murine leukemia virus gp70)
T3 construct: also called B.gp70CaseA2 V1/V2; gp70 B.CaseAV1V2
T3 chain: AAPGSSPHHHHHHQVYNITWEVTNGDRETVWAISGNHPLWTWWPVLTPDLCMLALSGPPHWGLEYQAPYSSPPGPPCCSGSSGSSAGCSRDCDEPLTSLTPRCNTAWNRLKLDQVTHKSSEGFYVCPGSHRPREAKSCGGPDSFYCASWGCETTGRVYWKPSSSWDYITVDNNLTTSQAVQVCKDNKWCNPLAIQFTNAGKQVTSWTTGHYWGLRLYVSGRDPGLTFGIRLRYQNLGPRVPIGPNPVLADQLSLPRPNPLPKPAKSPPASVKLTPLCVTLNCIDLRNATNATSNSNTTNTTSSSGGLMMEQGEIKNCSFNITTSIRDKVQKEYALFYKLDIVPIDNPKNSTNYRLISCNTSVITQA

D.9009SA V1/V2 tags [3] = target: D.9009SA V1/V2 tags; remark: listed apart in the source
C.1086 V1V2 Tags = C.1086 V1V2 Tags (HIV-1)
B.62357 gp140C = target: T4, B.62357 gp140C
T4 construct: also called B.62357 140C

B.con gp140CF [4] = target: B.con gp140CF; remark: listed apart in the source
gp70 C.1086 V1/V2 = target: T5, gp70 C.1086 V1/V2 (HIV-1 V1V2 on murine leukemia virus gp70)
T5 construct: also called C.gp70 1086C V1V2; C.1086gp70V1V2
T5 chain: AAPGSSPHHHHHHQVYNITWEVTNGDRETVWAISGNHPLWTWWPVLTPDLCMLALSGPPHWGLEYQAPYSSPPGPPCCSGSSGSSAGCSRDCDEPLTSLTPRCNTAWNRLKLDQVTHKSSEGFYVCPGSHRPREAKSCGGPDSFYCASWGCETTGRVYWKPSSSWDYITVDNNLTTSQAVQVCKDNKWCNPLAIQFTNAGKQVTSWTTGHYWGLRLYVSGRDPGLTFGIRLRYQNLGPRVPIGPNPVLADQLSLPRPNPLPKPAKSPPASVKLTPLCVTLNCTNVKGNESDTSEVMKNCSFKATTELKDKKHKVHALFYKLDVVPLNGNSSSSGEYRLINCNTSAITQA

J08 B.HXB2/BALV1V2 = target: T6, J08 B.HXB2/BALV1V2 (HIV-1)
T6 construct: also called J08 B.HXB/BAL V1V2
T6 chain: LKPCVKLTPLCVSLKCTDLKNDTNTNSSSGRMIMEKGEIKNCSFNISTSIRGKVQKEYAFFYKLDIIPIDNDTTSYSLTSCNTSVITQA

B.040 gp140C = target: B.040 gp140C
A.9004SS V1/V2 tags = target: T7, A.9004SS V1/V2 tags
T7 V1V2 tags construct: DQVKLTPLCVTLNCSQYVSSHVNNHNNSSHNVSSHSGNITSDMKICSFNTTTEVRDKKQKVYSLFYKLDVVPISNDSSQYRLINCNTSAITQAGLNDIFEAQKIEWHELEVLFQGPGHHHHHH

J08 A.92RW020V1V2 = J08 A.92RW020V1V2 (HIV-1)
B.HXB/BAL gp140CFI = target: T8, B.HXB/BAL gp140CFI (HIV-1, UniProt P04578 33-680)
T8 construct: also called B.HxB/Ba gp140 CFI

D.9009SA V1/V2 tags [5] = target: D.9009SA V1/V2 tags; remark: listed apart in the source

Measured: binding result

B1: CH59 reverted unmutated ancestor antibody (antibody, V domains shown)
VH: EVQLVESGGGLVQPGRSLRLSCAASGFTFDDYAMHWVRQAPGKGLEWVSGISWNSGSIGYADSVKGRFTISRDNAKNSLYLQMNSLRAEDTALYYCAKDSPRGELPFDYWGQGTLVTVSS
VL: SYELTQPPSVSVSPGQTARITCSGDALPKKYAYWYQQKSGQAPVLVIYEDSKRPSGIPERFSGSSSGTMATLTISGAQVEDEADYYCYSTDSSGNHRVFGGGTKLTVL
notes: also called CH59 RUA; CH59_RUA
no binding (tested: 10 ug/ml): D.9009SA V1/V2 tags [1] | AE.con gp140CF | B.con gp140CF [2] | C.1086 gp140 | Con 6 gp120

B2: PG16 (antibody, V domains shown)
VH: QEQLVESGGGVVQPGGSLRLSCLASGFTFHKYGMHWVRQAPGKGLEWVALISDDGMRKYHSDSMWGRVTISRDNSKNTLYLQFSSLKVEDTAMFFCAREAGGPIWHDDVKYYDFNDGYYNYHYMDVWGKGTTVTVSS
VL: QSALTQPASVSGSPGQTITISCNGTSSDVGGFDSVSWYQQSPGKAPKVMVFDVSHRPSGISNRFSGSKSGNTASLTISGLHIEDEGDYFCSSLTDRSHRIFGGGTKVTVL
notes: also called mAb PG16; bnAb PG16
not listed: D.9009SA V1/V2 tags [1] | AE.con gp140CF | B.con gp140CF [2] | C.1086 gp140 | Con 6 gp120 | D.9009SA V1/V2 tags [5]
no binding (tested: 10 ug/ml): all other assays above

B3: 697D (antibody, V domains shown)
VH: QVQLVQSGAEVKKPGSSVKVSCKASGGNFNTYTISWVRQAPGQGLEWMGRIIPIFGIVNPAQKFPGRVTINVDKSTNTAYMELSSLRSEDTAVYYCATSGVGLHFGYFDYWGQGTQVTVSS
VL: QSVLTQPPSVSGAPGQRVTISCTGSSSNIGAHYDVHWYQQLPGTAPKLLIYGNSNRPSGVPDRFSGSKSGTSASLAITGLQAEDEADYYCQSYDSSLSGYVFGTGTKVTVL
notes: also called mAb 697D; V2 conformational mAb 697D
no binding (tested: 10 ug/ml): D.9009SA V1/V2 tags [5]

Reference: patent US9988424 (DUKE UNIVERSITY, dated 2018)
